# In the RNAGym collection of RNA variant scans (doi:10.1021/acssynbio.7b00057):
# B1: Pistol ribozyme (parent)
# chain: GGGUCGUUGUUCCAUAAUCGCGUGGAUAUGGCACGCAAGUUUCUACCGGGCACCGUAAAUGUCCGACUGGAGCCGUUCGGGCGGCUAUAAACAGACCUCAGGCCCGAAGCGUGGCGGCACCUGCCGCCGGUGGUAAAAAAGAUCGGAAGAGCACACGUCU
# Variants of: B1
# Assay: aptazyme ON/OFF ratio, guanine; higher = stronger switching; co-transcriptional cleavage with and without guanine
row,Variant,aptazyme ON/OFF ratio
1,U7A U8G G9A U10A,1.4
2,U7A U8C U10G U11G C12G C13G,1.19
3,U7A U8C U10G U11G C12G C13U,1.4
4,U7A U8C U10G U11G C12G C13A,1.08
5,U7A U8G G9A U10A C12U C13G,1.13
6,U7A U8G G9A U10A C12U C13U,1.04
7,U7A U8G G9A U10A C12U C13A,1.38
8,U7A U8G G9A U10A C13G,1.18
9,U7A U8G G9A U10A C13U,1.26
10,U7A U8G G9A U10A C13A,1.41
11,U7A U8G G9A U10A C12A C13U,1.37
12,U7A U8G G9A U10A C12A C13G,1.06
13,U7A U8G G9A U10A C12A C13A,1.27
14,U7A U8G G9A,3.13
15,U7A U8G G9A U10A U11G C12A,1.08
16,U7A U8G G9A U10A U11G C12G,1.26
17,U7A U8C U10G U11C C12G,2.72
18,U7A U8C U10G U11C C12U,1.28
19,U7A U8C U10G U11C C12A,2.43
20,U7A U8C U10G U11C C12G C13A,1.45
21,U7A U8C U10G U11C C12G C13G,1.17
22,U7A U8C U10G U11C C12G C13U,1.57
23,U7A U8G C13A,1.42
24,U7A U8G C13U,1.2

row,Variant,aptazyme ON/OFF ratio
1,U7A U8G C13G,1.1
2,U7A U8G G9A U10A C12U,1.37
3,U7A U8G G9A U10A C12A,1.3
4,U7A U8G G9A U10A C12G,1.53
5,U7A U8G G9A U10A U11G C12G C13A,1.38
6,U7A U8C U10G U11G C12A C13A,1.14
7,U7A U8C U10G U11G C12A C13G,1.15
8,U7A U8C U10G U11G C12A C13U,1.34
9,U7A U8C U11G C12A C13U,1.16
10,U7A U8C U11G C12A C13G,1.12
11,U7A U8C U11G C12A C13A,1.07
12,U7A U8G G9A U10A U11C C13A,1.05
13,U7A U8G G9A U10A U11C C13G,1.04
14,U7A U8G G9A U10A U11C C13U,1.04
15,U7A U8G C12G C13G,1.27
16,U7A U8G C12G C13U,1.38
17,U7A U8G C12G C13A,1.38
18,U7A U8G G9A U10A U11A C12G,1.46
19,U7A U8G G9A U10A U11A C12A,1.45
20,U7A U8G G9A U10A U11A C12U,1.31
21,U7A U8C U11G C13G,1.15
22,U7A U8C U11G C13A,1.12
23,U7A U8C U11G C13U,1.21
24,U7A U8C U11A C12U C13U,1.28

row,Variant,aptazyme ON/OFF ratio
1,U7A U8C U11A C12U C13G,1.24
2,U7A U8C U11A C12U C13A,1.15
3,U7A U8C U10G U11C C12U C13A,1.36
4,U7A U8C U10G U11C C12U C13G,1.29
5,U7A U8C U10G U11C C12U C13U,1.51
6,U7A U8C U11A C12G C13A,1.06
7,U7A U8C U11A C12G C13G,1.1
8,U7A U8C U11A C12G C13U,1.15
9,U7A U8G C12U C13A,1.23
10,U7A U8G C12U C13U,1.53
11,U7A U8G C12U C13G,1.24
12,U7A U8G G9A U10A U11C C12G C13G,1.08
13,U7A U8G G9A U10A U11C C12G C13U,1.33
14,U7A U8G G9A U10A U11C C12G C13A,1.21
15,U7A U8C U11G C12A,1.19
16,U7A U8C U11G C12U,1.28
17,U7A U8C U11G C12G,1.09
18,U7A U8G G9A U10A C12G C13A,1.52
19,U7A U8G G9A U10A C12G C13U,1.34
20,U7A U8G G9A U10A C12G C13G,1.33
21,U7A U8G G9A U10A U11G C12A C13G,1.37
22,U7A U8G G9A U10A U11G C12A C13A,1.1
23,U7A U8G G9A U10A U11G C12A C13U,1.4
24,U7A U8C U11A C13A,1.14

row,Variant,aptazyme ON/OFF ratio
1,U7A U8C U11A C13G,1.13
2,U7A U8C U11A C13U,1.15
3,U7A U8G C12A,1.22
4,U7A U8G C12G,1.27
5,U7A U8G C12U,1.61
6,U7A U8C U11A C12U,1.23
7,U7A U8C U11A C12G,1.16
8,U7A U8C U11A C12A,1.32
9,U7A U8G G9A U10A U11C C12A C13G,1.33
10,U7A U8G G9A U10A U11C C12A C13U,1.16
11,U7A U8G G9A U10A U11C C12A C13A,1.32
12,U7A U8G G9A U10A U11A C12U C13A,1.2
13,U7A U8G G9A U10A U11A C12U C13G,1.29
14,U7A U8G G9A U10A U11A C12U C13U,1.07
15,U7A U8G G9A U10A U11C C12U,1.04
16,U7A U8G G9A U10A U11C C12G,1.37
17,U7A U8G G9A U10A U11C C12A,1.44
18,U7A U8C U10G U11G C12A,1.25
19,U7A U8C U10G U11G C12G,1.04
20,U7A U8C U10G U11G C12U,1.34
21,U7A U8C U11G C12U C13U,1.1
22,U7A U8C U11G C12U C13G,1.06
23,U7A U8C U11G C12U C13A,1.08
24,U7A U8G G9A U10A U11C C12U C13U,1.26

row,Variant,aptazyme ON/OFF ratio
1,U7A U8G G9A U10A U11C C12U C13A,1.15
2,U7A U8G G9A U10A U11C C12U C13G,1.17
3,U7A U8C U11C C12G C13G,1.22
4,U7A U8C U11C C12G C13U,1.5
5,U7A U8C U11C C12G C13A,1.32
6,U7A U8G G9A U10A U11A C12A C13A,1.3
7,U7A U8G G9A U10A U11A C12A C13G,1.13
8,U7A U8G G9A U10A U11A C12A C13U,1.29
9,U7A U8C U10G U11C C12A C13U,1.39
10,U7A U8C U10G U11C C12A C13A,1.34
11,U7A U8C U10G U11C C12A C13G,1.12
12,U7A U8G G9A U10A U11A C12G C13U,1.37
13,U7A U8G G9A U10A U11A C12G C13G,1.34
14,U7A U8G G9A U10A U11A C12G C13A,1.29
15,U7A U8G G9A C12G C13U,1.37
16,U7A U8G G9A C12G C13G,1.81
17,U7A U8G G9A C12G C13A,1.19
18,U7A U8C U11G C12G C13U,1.11
19,U7A U8C U11G C12G C13G,1.1
20,U7A U8C U11G C12G C13A,1.04
21,U7A U8C U10G U11C C13G,1.18
22,U7A U8C U10G U11C C13U,1.27
23,U7A U8C U10G U11C C13A,1.18
24,U7A U8C U10G U11G C12U C13A,1.23

row,Variant,aptazyme ON/OFF ratio
1,U7A U8C U10G U11G C12U C13G,1.23
2,U7A U8C U10G U11G C12U C13U,1.24
3,U7A U8C U10G U11C,1.74
4,U7A U8C U10G U11G,1.4
5,U7A U8C U11A C12A C13A,1.2
6,U7A U8C U11A C12A C13U,1.27
7,U7A U8C U11A C12A C13G,1.16
8,U7A U8C U10G U11G C13U,1.39
9,U7A U8C U10G U11G C13G,1.2
10,U7A U8C U10G U11G C13A,1.2
11,U7A U8C U11C C12U C13G,1.29
12,U7A U8C U11C C12U C13A,1.28
13,U7A U8C U11C C12U C13U,1.29
14,U7A U8G G9A U10A U11C,1.03
15,U7A U8G G9A U10A U11A,1.8
16,U7A U8G G9A U10A U11G,1.8
17,U7A U8G G9A C12A C13G,1.19
18,U7A U8G G9A C12A C13A,1.41
19,U7A U8G G9A C12A C13U,1.35
20,U7A U8G G9A C13U,1.39
21,U7A U8G G9A C13G,1.18
22,U7A U8G G9A C13A,1.39
23,U7A U8C U11G,1.37
24,U7A U8C U11C,1.2

row,Variant,aptazyme ON/OFF ratio
1,U7A U8C U11A,1.14
2,U7A U8G C12A C13A,1.27
3,U7A U8G C12A C13G,1.25
4,U7A U8G C12A C13U,1.31
5,U7A U8G G9A C12U C13U,1.04
6,U7A U8G G9A C12U C13G,1.23
7,U7A U8G G9A C12U C13A,1.28
8,U7A U8C U11C C13U,1.17
9,U7A U8C U11C C13A,1.19
10,U7A U8C U11C C13G,1.13
11,U7A U8G G9A U10A U11A C13U,1.17
12,U7A U8G G9A U10A U11A C13G,1.17
13,U7A U8G G9A U10A U11A C13A,1.19
14,U7A U8G G9A C12G,1.79
15,U7A U8G G9A C12A,1.69
16,U7A U8G G9A C12U,1.63
17,U7A U8C U11C C12A C13U,1.37
18,U7A U8C U11C C12A C13G,1.31
19,U7A U8C U11C C12A C13A,1.44
20,U7A U8G,1.13
21,U7A U8C U11C C12U,1.46
22,U7A U8C U11C C12A,1.39
23,U7A U8C U11C C12G,1.63
